Test results reported in PMC9246713.

Molecular target: OmpK36WT (wild type OmpK36 porin trimer of K. pneumoniae ATCC 43816) (Klebsiella pneumoniae)
Experiment: cryo-EM structure; OmpK36-TraN sample 0.33 mg ml^-1 diluted 1:6 in buffer A (50 mM NaCl, 10 mM HEPES pH 7.0, 0.03% DDM); graphene oxide-coated grids; Titan Krios 300 keV; 2.6 Å

| Substance | occupancy (TraN molecules for each OmpK36 trimer) (molecule for each OmpK36 trimer) | stoichiometry N |
| --- | --- | --- |
| TraN from the plasmid pKpQIL (mature TraN, D28 to Q651) (natural protein) | < 1 | – |
| OmpK36WT (wild type OmpK36 porin trimer of K. pneumoniae ATCC 43816) (natural protein) | – | 3 |
